Assay results as given in the supplement of paper PMC10724198.
± gives the standard deviation of the averaged measurements.

System: Saccharomyces cerevisiae
Experiment: protein stability index of tFT-peptide fusion (C-terminal peptide) (PSI (0-1 scale)); higher = more stable (slower turnover)
Details: genetic background: wild type; temperature: 30 C
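Note: PSI is a weighted mean of sequencing reads over stability bins, variants kept only with over 10 reads, mCherry proximal and sfGFP distal, peptide attached via GGGS linker.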

Row | Sequence | protein stability index
1 | SPPPPRPPSQPS | 0.674 ± 0.021
2 | SPPPPTPPLSPP | 0.669 ± 0.0051
3 | SPPPSSTSTSTS | 0.688 ± 0.061
4 | SPPPTSHPSAPP | 0.638 ± 0.056
5 | SPPSPFAFPLPP | 0.67473 ± 0.00064
6 | SPPSPPSPPPLV | 0.745 ± 0.013
7 | SPPSPYPPPLDR | 0.695 ± 0.021
8 | SPPSSFPVFTLL | 0.728 ± 0.05
9 | SPPTPRIPPPLP | 0.663 ± 0.035
10 | SPPTSPAPLPPP | 0.6502 ± 0.0032
11 | SPPTTHPPSSHG | 0.7486 ± 0.0062
12 | SPPWGQGSVSSK | 0.729 ± 0.052
13 | SPQPPHSPLSAR | 0.653 ± 0.024
14 | SPRFLLNCWGRL | 0.821 ± 0.027
15 | SPRGRGARRGRI | 0.705 ± 0.028
16 | SPRLHFPPRHPC | 0.717 ± 0.015
17 | SPRLLPSPTRVA | 0.643 ± 0.059
18 | SPRLSGVPGHAP | 0.663 ± 0.027
19 | SPRPTRPALLPP | 0.708 ± 0.033
20 | SPRRWVSGHPRG | 0.711 ± 0.042
21 | SPRSPACPTPDR | 0.734 ± 0.011
22 | SPRSPPSPPPRP | 0.746 ± 0.045
23 | SPRSPPSTSSPQ | 0.6802 ± 0.001

Row | Sequence | protein stability index
24 | SPSGCVGSSAQS | 0.68061 ± 0.00045
25 | SPSLAPSPSALL | 0.598 ± 0.018
26 | SPSLPPLSPPNP | 0.699 ± 0.039
27 | SPSPLSHSPLAF | 0.647 ± 0.009
28 | SPSPPLAPPSPS | 0.671 ± 0.0073
29 | SPSPPSLLPAPS | 0.74 ± 0.062
30 | SPSQRPLPSISP | 0.718 ± 0.01
31 | SPSSLPPVPPSP | 0.6764 ± 0.0036
32 | SPSSPPPSPPPA | 0.727 ± 0.016
33 | SPSTSIPPLPAS | 0.73 ± 0.016
34 | SPTARRLSGCIS | 0.658 ± 0.086
35 | SPTIRPDESPVQ | 0.6893 ± 0.0067
36 | SPTPHPPPSPPL | 0.728 ± 0.023
37 | SPTPSLPFPALF | 0.737 ± 0.097
38 | SPTRPPSPIISR | 0.7181 ± 0.002
39 | SPVLSPHSRSSF | 0.633 ± 0.087
40 | SPVLSPLSLPPH | 0.6982 ± 0.0042
41 | SPVPIPPSPSRP | 0.687 ± 0.019
42 | SPVRPPLSSLYS | 0.705 ± 0.04
43 | SPVSLPIPYTFL | 0.6891 ± 0.0054
44 | SQAALLIPLFSL | 0.681 ± 0.03
45 | SQFWGCALFIEH | 0.652 ± 0.018
46 | SQGLALFLRPGY | 0.628 ± 0.057

Row | Sequence | protein stability index
47 | SQSFFDGVLVRV | 0.673 ± 0.059
48 | SRAAGILCVVQI | 0.615 ± 0.084
49 | SRAPPTSLVWGF | 0.678 ± 0.097
50 | SRDIKTDCLRRV | 0.688 ± 0.078
51 | SREKRKEEQTQK | 0.717 ± 0.018
52 | SRFGSVSCRPSI | 0.713 ± 0.079
53 | SRFPPDTFFSFL | 0.802 ± 0.14
54 | SRGARRRGGAGR | 0.656 ± 0.056
55 | SRGPSLYLCGVR | 0.63 ± 0.00074
56 | SRIALLSLGAIL | 0.707 ± 0.028
57 | SRIPARCDGKCI | 0.6722 ± 0.0037
58 | SRKEKNEKRSWG | 0.674 ± 0.041
59 | SRLGLLTDGVYA | 0.583 ± 0.025
60 | SRLLLPPRGILP | 0.76 ± 0.15
61 | SRLPSYVSACSF | 0.671 ± 0.011
62 | SRLRPHNSSTPV | 0.716 ± 0.053
63 | SRNLRRLEIRRE | 0.743 ± 0.027
64 | SRPFAILLCAEK | 0.62 ± 0.015
65 | SRPLANYARCSS | 0.639 ± 0.036
66 | SRPSPAMFLFSP | 0.737 ± 0.1
67 | SRRCKAFLCRGY | 0.6663 ± 0.0053
68 | SRRSNMRNMRTT | 0.657 ± 0.081
69 | SRRYLPHRPTSL | 0.732 ± 0.071

Row | Sequence | protein stability index
70 | SRTAFNRGTTRD | 0.681 ± 0.044
71 | SRVRSPPWTRKF | 0.739 ± 0.1
72 | SRWTFSFYRNLD | 0.683 ± 0.053
73 | SSAALSPPPPRP | 0.724 ± 0.027
74 | SSCTRLSILVWF | 0.52 ± 0.0056
75 | SSDFVFGHRFCR | 0.693 ± 0.015
76 | SSEKKKEDGGLG | 0.687 ± 0.069
77 | SSFPAGGWLFFL | 0.682 ± 0.029
78 | SSFVFGLCGGVA | 0.694 ± 0.03
79 | SSGPPRLPHSRR | 0.646 ± 0.046
80 | SSGTLSPLSPVP | 0.655 ± 0.027
81 | SSHSPFSPVLLP | 0.71 ± 0.017
82 | SSHVPPDLPSLH | 0.692 ± 0.031
83 | SSHYSSPAALPY | 0.696 ± 0.019
84 | SSILQFSCFHGN | 0.707 ± 0.036
85 | SSLEGMRSGLCR | 0.69 ± 0.045
86 | SSLFVISIPFRS | 0.639 ± 0.015
87 | SSLLPLLVPLAP | 0.723 ± 0.076
88 | SSLPVPGPFVND | 0.69 ± 0.066
89 | SSPALPPQPPSH | 0.723 ± 0.0054
90 | SSPLLSISPHFP | 0.666 ± 0.042
91 | SSPLPPPSPLPA | 0.678 ± 0.031
92 | SSPLSSRFLLCL | 0.579 ± 0.027

Row | Sequence | protein stability index
93 | SSPPHLPRPSSP | 0.748 ± 0.024
94 | SSPPPCPLPTYP | 0.624 ± 0.068
95 | SSPPPLPPSPPP | 0.673 ± 0.019
96 | SSPRRRLHSLSL | 0.782 ± 0.04
97 | SSPSPCSRPLLL | 0.7112 ± 0.0011
98 | SSPSPPSLLPSL | 0.70987 ± 0.00056
99 | SSPSPPSSSSFP | 0.639 ± 0.028
100 | SSRPTLLSPPPA | 0.706 ± 0.012
101 | SSRRNNIPKRYK | 0.713 ± 0.031
102 | SSSLCSSSLGGS | 0.605 ± 0.069
103 | SSSPTFLLSPFP | 0.721 ± 0.012
104 | SSTPGWVSCDKI | 0.735 ± 0.029
105 | SSTPYRHLLTPH | 0.723 ± 0.013
106 | SSVNYPSFPPLA | 0.706 ± 0.03
107 | SSVQVSMGTAAG | 0.681 ± 0.036
108 | STAFRDSAMRDP | 0.664 ± 0.051
109 | STCPPIFFVSSW | 0.7248 ± 0.0063
110 | STLEKTFRVAKR | 0.694 ± 0.011
111 | STLIARAQRGQA | 0.639 ± 0.073
112 | STLSSPSRRLLP | 0.677 ± 0.03
113 | STPPPPPTFQLS | 0.691 ± 0.047
114 | STPRTPNFPATA | 0.706 ± 0.019
115 | STQIRQILERKC | 0.653 ± 0.051

Row | Sequence | protein stability index
116 | STRPDLLLLAES | 0.6 ± 0.055
117 | STSPFPAPRRAL | 0.775 ± 0.052
118 | STTILIKKKNDK | 0.684 ± 0.041
119 | STTPKFNILASD | 0.646 ± 0.022
120 | STVKVVIIHFKI | 0.48 ± 0.036
121 | STVPDRPRLPVY | 0.674 ± 0.022
122 | SVCVLGPLDGSC | 0.701 ± 0.022
123 | SVEKYDGGKGVV | 0.69 ± 0.0095
124 | SVESAVRALQPT | 0.731 ± 0.042
125 | SVFTLLGSMCLE | 0.664 ± 0.011
126 | SVGGSRSGRGGQ | 0.688 ± 0.011
127 | SVGLLLSPFPPL | 0.6882 ± 0.0063
128 | SVKGRVPLYVSE | 0.658 ± 0.042
129 | SVLVQLLATTKS | 0.675 ± 0.028
130 | SVPLTLLPPLFP | 0.694 ± 0.016
131 | SVPLYRLSSWRN | 0.695 ± 0.021
132 | SVPPPPLARALL | 0.759 ± 0.057
133 | SVPTPPLVPSIS | 0.665 ± 0.07
134 | SVSLPPSLPFLL | 0.764 ± 0.03
135 | SVVGGVVVELEG | 0.65 ± 0.0096
136 | SVVVWRWVCGWS | 0.549 ± 0.014
137 | SVWDGSRVKCST | 0.704 ± 0.04
138 | SVYPSSPTRPPP | 0.683 ± 0.048

Row | Sequence | protein stability index
139 | SVYVGAQAFCTC | 0.612 ± 0.025
140 | SWCDKGSCLVDE | 0.695 ± 0.07
141 | SWIQLDAWETRS | 0.696 ± 0.041
142 | SWKEAIVAISGS | 0.612 ± 0.058
143 | SWRKGAHRPVEV | 0.66 ± 0.036
144 | SWRRAASSGGGE | 0.618 ± 0.074
145 | SWSVSVNMVGQS | 0.6829 ± 0.0042
146 | SWVFSVDNGLVV | 0.6133 ± 0.0012
147 | SWYQPSLREYAQ | 0.74268 ± 0.00062
148 | SWYSRARMAGEG | 0.652 ± 0.0093
149 | SYGTIGYLATSF | 0.687 ± 0.075
150 | SYLRGPIVTGFG | 0.712 ± 0.077
151 | SYLVLLHDRGMK | 0.665 ± 0.011
152 | SYMCRCALDCFL | 0.643 ± 0.035
153 | SYPSGFPSPSHP | 0.834 ± 0.062
154 | SYRHHPTVPSTY | 0.705 ± 0.057
155 | SYRPPYTQPTDL | 0.658 ± 0.064
156 | TAPGYLGFSPFE | 0.713 ± 0.034
157 | TARIIAHPQTRI | 0.661 ± 0.032
158 | TARQNRARPGHP | 0.678 ± 0.022
159 | TASPAHTPTKTR | 0.608 ± 0.051
160 | TCAPTRISRTPG | 0.6883 ± 0.00073
